Results as given in patent US20140243227A1, “CULTURE MEDIA FOR STEM CELLS” (Koninklijke Nederlandse Akademie van Wetenschappen, priority 2011, published 2014).

Tests used:
[1] = tested on: human colon crypts; experiment: Screening of reagents for optimization of human intestinal organoids culture (plating efficiency); format: cell-based; conditions: First screening (WENR)
[2] = tested on: Barrett's Esophagus epithelium; experiment: Culture of Barrett's esophagus (BE) organoids; conditions: FGF10 added to HISC condition
[3] = tested on: mouse organoids; experiment: M cell development in organoids stimulated with RANK ligand; format: cell-based
Protocol: FIG. 48: A) Mouse organoids were cultured in the presence of different doses recombinant mouse RANKL for 72 h. mRNA expression levels for RANK, the transciption factor SpiB and the M cell-specific markers GP2 and AnnexinV were determined by qPCR.

[4] = tested on: pancreatic organoids; experiment: Effect of Noggin on gene expression of pancreatic organoids in expansion medium; conditions: EGFRAN vs EGFRA medium

B1: Cyr61: growth factor (Peprotech) (protein, UniProt O00622 25-381, looked up)
CCN family member 1: TCPAACHCPLEAPKCAPGVGLVRDGCGCCKVCAKQLNEDCSKTQPCDHTKGLECNFGASSTALKGICRAQSEGRPCEYNSRIYQNGESFQPNCKHQCTCIDGAVGCIPLCPQELSLPNLGCPNPRLVKVTGQCCEEWVCDEDSIKDPMEDQDGLLGKELGFDASEVELTRNNELIAVGKGSSLKRLPVFGMEPRILYNPLQGQKCIVQTTSWSQCSKTCGTGISTRVTNDNPECRLVKETRICEVRPCGQPVYSSLKKGKKCSKTKKSPEPVRFTYAGCLSVKKYRPKYCGSCVDGRCCTPQLTRTVKMRFRCEDGETFSKNVMMIQSCKCNYNCPHANEAAFPFYRLFNDIHKFRD
[1]
  Activity (plating efficiency compared with control after 4 days culture): 0

B2: FGF10: human recombinant FGF10 (Peprotech) (protein, UniProt O15520 38-208, looked up)
Fibroblast growth factor 10: QALGQDMVSPEATNSSSSSFSSPSSAGRHVRSYNHLQGDVRWRKLFSFTKYFLKIEKNGKVSGTKKENCPYSILEITSVEIGVVAVKAINSNYYLAMNKKGKLYGSKEFNNDCKLKERIEENGYNTYASFNWQHNGRQMYVALNGKGAPRRGQKTRRKNTSAHFLPMVVHS
[1]
  Activity (plating efficiency compared with control after 4 days culture): 0
[2]
  Culture duration of BE organoids: > 3 months

B3: BDNF: brain-derived neurotrophic factor (protein, UniProt P23560 19-247, looked up)
Neurotrophic factor BDNF …: APMKEANIRGQGGLAYPGVRTHGTLESVNGPKAGSRGLTSLADTFEHVIEELLDEDQKVRPNEENNKDADLYTSRVMLSSQVPLEPPLLFLLEEYKNYLDAANMSMRVRRHSDPARRGELSVCDSISEWVTAADKKTAVDMSGGTVTVLEKVPVSKGQLKQYFYETKCNPMGYTKEGCRGIDKRHWNSQCRTTQSYVRALTMDSKKRIGWRFIRIDTSCVCTLTIKRGR
[1]
  Activity (plating efficiency compared with control after 4 days culture): 0

B4: RANK ligand: RANK ligand (RANKL), recombinant (protein, UniProt O14788 140-317, looked up)
Tumor necrosis factor ligand …: IRAEKAMVDGSWLDLAKRSKLEAQPFAHLTINATDIPSGSHKVSLSSWYHDRGWAKISNMTFSNGKLIVNQDGFYYLYANICFRHHETSGDLATEYLQLMVYVTKTSIKIPSSHTLMKGGSTKYWSGNSEFHFYSINVGGFFKLRSGEEISIEVSNPSLLDPDQDATYFGAFKVRDID
[3]
  Development of M cells: can develop into M cells

B5: Noggin: BMP inhibitor (protein, UniProt Q13253 28-232, looked up)
Noggin: QHYLHIRPAPSDNLPLVDLIEHPDPIFDPKEKDLNETLLRSLLGGHYDPGFMATSPPEDRPGGGGGAAGGAEDLAELDQLLRQRPSGAMPSEIKGLEFSEGLAQGKKQRLSKKLRRKLQMWLWSQTFCPVLYAWNDLGSRFWPRYVKVGSCFSKRSCSVPEGMVCKPSKSVHLTVLRWRCQRRGGQRCGWIPIQYPIISECKCSC
[4]
  Lgr5 expression relative to organoids cultured without Noggin: 2 fold

B6: GDNF: growth factor (Peprotech) (protein, UniProt P39905 78-211, looked up)
Glial cell line-derived …: SPDKQMAVLPRRERNRQAAAANPENSRGKGRRGQRGKNRGCVLTAIHLNVTDLGLGYETKEELIFRYCSGSCDAAETTYDKILKNLSRNRRLVSDKVGQACCRPIAFDDDLSFLDDNLVYHILRKHSAKRCGCI
[1]
  Activity (plating efficiency compared with control after 4 days culture): 0

B7: Follistatin: growth factor (Peprotech) (protein, UniProt P19883 30-344, looked up)
Follistatin: GNCWLRQAKNGRCQVLYKTELSKEECCSTGRLSTSWTEEDVNDNTLFKWMIFNGGAPNCIPCKETCENVDCGPGKKCRMNKKNKPRCVCAPDCSNITWKGPVCGLDGKTYRNECALLKARCKEQPELEVQYQGRCKKTCRDVFCPGSSTCVVDQTNNAYCVTCNRICPEPASSEQYLCGNDGVTYSSACHLRKATCLLGRSIGLAYEGKCIKAKSCEDIQCTGGKKCLWDFKVGRGRCSLCDELCPDSKSDEPVCASDNATYASECAMKEAACSSGVLLEVKHSGSCNSISEDTEEEEEDEDQDYSFPISSILEW
[1]
  Activity (plating efficiency compared with control after 4 days culture): 0
